Measurements as given in patent US20200207850A1 (MacroGenics, published 2020).
Numbering of substitutions follows the chain as printed.

T1: 5T4 on JIMT-1 target cells (UniProt Q13641 32-420, limits assumed)
T1 sequence (looked up): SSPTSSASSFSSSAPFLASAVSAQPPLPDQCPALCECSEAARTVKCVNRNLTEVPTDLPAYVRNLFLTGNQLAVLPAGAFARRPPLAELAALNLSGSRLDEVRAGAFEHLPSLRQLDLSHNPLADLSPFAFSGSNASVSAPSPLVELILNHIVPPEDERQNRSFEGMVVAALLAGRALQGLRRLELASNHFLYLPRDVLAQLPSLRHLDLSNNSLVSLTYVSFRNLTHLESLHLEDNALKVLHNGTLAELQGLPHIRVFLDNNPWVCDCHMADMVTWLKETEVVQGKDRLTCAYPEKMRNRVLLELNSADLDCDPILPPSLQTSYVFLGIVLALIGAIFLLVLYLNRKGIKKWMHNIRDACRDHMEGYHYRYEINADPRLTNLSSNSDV

T2: B7-H3 on A498 and JIMT-1 target cells (UniProt Q5ZPR3 29-534, limits assumed)
T2 sequence (looked up): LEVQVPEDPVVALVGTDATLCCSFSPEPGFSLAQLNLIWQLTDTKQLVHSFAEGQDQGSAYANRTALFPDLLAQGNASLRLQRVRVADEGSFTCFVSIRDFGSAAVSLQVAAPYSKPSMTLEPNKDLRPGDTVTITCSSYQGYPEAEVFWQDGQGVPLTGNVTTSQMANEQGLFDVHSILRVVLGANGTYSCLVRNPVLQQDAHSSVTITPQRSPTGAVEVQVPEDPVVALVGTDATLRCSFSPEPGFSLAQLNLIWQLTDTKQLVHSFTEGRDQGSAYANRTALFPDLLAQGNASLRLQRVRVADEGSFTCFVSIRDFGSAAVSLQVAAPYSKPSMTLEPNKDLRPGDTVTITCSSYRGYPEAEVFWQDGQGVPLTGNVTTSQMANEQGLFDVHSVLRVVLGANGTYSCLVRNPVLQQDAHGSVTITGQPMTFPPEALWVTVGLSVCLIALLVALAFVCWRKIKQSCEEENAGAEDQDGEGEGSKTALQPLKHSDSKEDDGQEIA

B1: 5T4 mAb 1/CD3 mAb 2/CD8 mAb 1 Tri-Specific Binding Molecule (other)
chain 1: DIQMTQSPSSLSASVGDRVTITCRASQGISNYLAWFQQKPGKAPKSLIYRANRLQSGVPSRFSGSGSGTDFTLTISSLQPEDVATYYCLQYDDFPWTFGQGTKLEIKGGGSGGGGEVQLVESGGGLVQPGGSLRLSCAASGFTFSTYAMNWVRQAPGKGLEWVGRIRSKYNNYATYYADSVKGRFTISRDDSKNSLYLQMNSLKTEDTAVYYCVRHGNFGNSYVSWFAYWGQGTLVTVSSGGCGGGEVAALEKEVAALEKEVAALEKEVAALEKGGGDKTHTCPPCPAPEAAGGPSVFLFPPKPKDTLMISRTPEVTCVVVDVSHEDPEVKFNWYVDGVEVHNAKTKPREEQYNSTYRVVSVLTVLHQDWLNGKEYKCKVSNKALPAPIEKTISKAKGQPREPQVYTLPPSREEMTKNQVSLWCLVKGFYPSDIAVEWESNGQPENNYKTTPPVLDSDGSFFLYSKLTVDKSRWQQGNVFSCSVMHEALHNHYTQKSLSLSPGK
chain 2: QAVVTQEPSLTVSPGGTVTLTCRSSTGAVTTSNYANWVQQKPGQAPRGLIGGTNKRAPWTPARFSGSLLGGKAALTITGAQAEDEADYYCALWYSNLWVFGGGTKLTVLGGGGSGGGGQVQLVQSGAEVKKPGASVKVSCKASGYTFTSFWMHWVRQAPGQGLEWMGRIDPNRGGTEYNEKAKSRVTMTADKSTSTAYMELSSLRSEDTAVYYCAGGNPYYPMDYWGQGTTVTVSSGGCGGGKVAALKEKVAALKEKVAALKEKVAALKE
heavy: EVQLQQSGAELVKPGASVKLSCTASGFNIKDTYIHFVRQRPEQGLEWIGRIDPANDNTLYASKFQGKATITADTSSNTAYMHLCSLTSGDTAVYYCGRGYGYYVFDHWGQGTTLTVSSASTKGPSVFPLAPSSKSTSGGTAALGCLVKDYFPEPVTVSWNSGALTSGVHTFPAVLQSSGLYSLSSVVTVPSSSLGTQTYICNVNHKPSNTKVDKRVEPKSCDKTHTCPPCPAPEAAGGPSVFLFPPKPKDTLMISRTPEVTCVVVDVSHEDPEVKFNWYVDGVEVHNAKTKPREEQYNSTYRVVSVLTVLHQDWLNGKEYKCKVSNKALPAPIEKTISKAKGQPREPQVYTLPPSREEMTKNQVSLSCAVKGFYPSDIAVEWESNGQPENNYKTTPPVLDSDGSFFLVSKLTVDKSRWQQGNVFSCSVMHEALHNRYTQKSLSLSPGK
light: DVQINQSPSFLAASPGETITINCRTSRSISQYLAWYQEKPGKTNKLLIYSGSTLQSGIPSRFSGSGSGTDFTLTISGLEPEDFAMYYCQQHNENPLTFGAGTKLELRRTVAAPSVFIFPPSDEQLKSGTASVVCLLNNFYPREAKVQWKVDNALQSGNSQESVTEQDSKDSTYSLSSTLTLSKADYEKHKVYACEVTHQGLSSPVTKSFNRGEC
B2: 5T4 mAb 1/CD3 mAb 2 Low/CD8 mAb 1 Tri-Specific Binding Molecule (other)
chain 1: DIQMTQSPSSLSASVGDRVTITCRASQGISNYLAWFQQKPGKAPKSLIYRANRLQSGVPSRFSGSGSGTDFTLTISSLQPEDVATYYCLQYDDFPWTFGQGTKLEIKGGGSGGGGEVQLVESGGGLVQPGGSLRLSCAASGFTFSTYAMNWVRQAPGKGLEWVGRIRSKYNNYATYYADSVKGRFTISRDDSKNSLYLQMNSLKTEDTAVYYCVRHGNFGNSYVTWFAYWGQGTLVTVSSASTKGEVAACEKEVAALEKEVAALEKEVAALEKGGGDKTHTCPPCPAPEAAGGPSVFLFPPKPKDTLMISRTPEVTCVVVDVSHEDPEVKFNWYVDGVEVHNAKTKPREEQYNSTYRVVSVLTVLHQDWLNGKEYKCKVSNKALPAPIEKTISKAKGQPREPQVYTLPPSREEMTKNQVSLWCLVKGFYPSDIAVEWESNGQPENNYKTTPPVLDSDGSFFLYSKLTVDKSRWQQGNVFSCSVMHEALHNHYTQKSLSLSPGK
chain 2: QAVVTQEPSLTVSPGGTVTLTCRSSTGAVTTSNYANWVQQKPGQAPRGLIGGTNKRAPWTPARFSGSLLGGKAALTITGAQAEDEADYYCALWYSNLWVFGGGTKLTVLGGGGSGGGGQVQLVQSGAEVKKPGASVKVSCKASGYTFTSFWMHWVRQAPGQGLEWMGRIDPNRGGTEYNEKAKSRVTMTADKSTSTAYMELSSLRSEDTAVYYCAGGNPYYPMDYWGQGTTVTVSSASTKGKVAACKEKVAALKEKVAALKEKVAALKE
heavy: B1 heavy
light: B1 light
B3: 5T4 mAb 1/CD3 mAb 2 Fast/CD8 mAb 1 Tri-Specific Binding Molecule (other)
chain 1: B2 chain 1 with G217K
chain 2: B2 chain 2
heavy: B1 heavy
light: B1 light
B4: B7-H3 mAb 1/CD3 mAb 2/CD8 mAb 2 Tri-Specific Binding Molecule (other)
chain 1: DIQMTQSPSSLSASVGDRVTITCRASQDISNYLNWYQQKPGKAPKLLIYYTSRLHSGVPSRFSGSGSGTDFTLTISSLQPEDIATYYCQQGNTLPPTFGGGTKLEIKGGGSGGGGEVQLVESGGGLVQPGGSLRLSCAASGFTFSTYAMNWVRQAPGKGLEWVGRIRSKYNNYATYYADSVKDRFTISRDDSKNSLYLQMNSLKTEDTAVYYCVRHGNFGNSYVSWFAYWGQGTLVTVSSGGCGGGEVAALEKEVAALEKEVAALEKEVAALEKGGGDKTHTCPPCPAPEAAGGPSVFLFPPKPKDTLMISRTPEVTCVVVDVSHEDPEVKFNWYVDGVEVHNAKTKPREEQYNSTYRVVSVLTVLHQDWLNGKEYKCKVSNKALPAPIEKTISKAKGQPREPQVYTLPPSREEMTKNQVSLWCLVKGFYPSDIAVEWESNGQPENNYKTTPPVLDSDGSFFLYSKLTVDKSRWQQGNVFSCSVMHEALHNHYTQKSLSLSPGK
chain 2: QAVVTQEPSLTVSPGGTVTLTCRSSTGAVTTSNYANWVQQKPGQAPRGLIGGTNKRAPWTPARFSGSLLGGKAALTITGAQAEDEADYYCALWYSNLWVFGGGTKLTVLGGGGSGGGGQVQLVQSGAEVKKPGASVKVSCKASGYTFTSYWMQWVRQAPGQGLEWMGTIYPGDGDTRYTQKFKGRVTITADKSTSTAYMELSSLRSEDTAVYYCARRGIPRLWYFDVWGQGTTVTVSSGGCGGGKVAALKEKVAALKEKVAALKEKVAALKE
heavy: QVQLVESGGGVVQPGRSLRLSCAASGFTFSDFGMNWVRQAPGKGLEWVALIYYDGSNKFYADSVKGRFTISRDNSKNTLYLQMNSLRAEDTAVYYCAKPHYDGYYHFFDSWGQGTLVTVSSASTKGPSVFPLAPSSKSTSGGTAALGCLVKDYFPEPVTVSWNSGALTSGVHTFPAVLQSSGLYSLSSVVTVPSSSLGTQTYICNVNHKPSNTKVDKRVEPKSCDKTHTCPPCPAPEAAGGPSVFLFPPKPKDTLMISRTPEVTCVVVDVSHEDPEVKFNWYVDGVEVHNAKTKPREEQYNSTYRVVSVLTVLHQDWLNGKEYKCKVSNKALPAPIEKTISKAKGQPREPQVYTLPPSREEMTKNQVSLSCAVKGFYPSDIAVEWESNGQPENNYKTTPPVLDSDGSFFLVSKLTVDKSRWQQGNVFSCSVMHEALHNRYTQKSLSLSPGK
light: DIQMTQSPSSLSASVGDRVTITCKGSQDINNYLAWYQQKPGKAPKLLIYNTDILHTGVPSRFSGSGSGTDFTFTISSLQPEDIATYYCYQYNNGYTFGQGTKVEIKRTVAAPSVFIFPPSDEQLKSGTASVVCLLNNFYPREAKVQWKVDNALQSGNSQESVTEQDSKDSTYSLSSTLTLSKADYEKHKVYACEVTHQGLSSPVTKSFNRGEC
notes: Site A B7-H3, Site B CD3, Site C CD8 (TRX2)

Legend:
[1] = target: T1, 5T4 on JIMT-1 target cells; test: cell-based or functional assay
[2] = target: T3, CD8 on human T cells (PBMC) (human, UniProt P01732 22-235); test: flow cytometry on human PBMC gated CD5+/CD4- (cells carry CD8 and CD3), detection with anti-human Fc-PE
T3 construct: whole, on cells; The CD8+ (CD5+ CD4-) cells also carry CD3; also called CD5+ CD4- gated PBMC; CD8+ T cells
T3 sequence (P01732 22-235): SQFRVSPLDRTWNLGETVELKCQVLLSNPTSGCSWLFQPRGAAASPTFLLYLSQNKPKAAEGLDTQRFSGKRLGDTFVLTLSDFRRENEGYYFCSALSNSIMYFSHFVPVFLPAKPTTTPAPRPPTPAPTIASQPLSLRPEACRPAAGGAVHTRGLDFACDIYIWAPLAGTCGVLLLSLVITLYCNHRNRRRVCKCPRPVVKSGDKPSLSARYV

[3] = target: T2, B7-H3 on A498 and JIMT-1 target cells; test: cell-based or functional assay
[4] = target: T3, CD8 on human T cells (PBMC); test: flow cytometry on human PBMC, CD5+/CD4- gated cells (bear CD8 and CD3), detection PE anti-human Fc (MFI)
Experimental: 50 μL (4×10⁶ cells/mL) of well-mixed cells in FACS buffer containing 0.01% sodium azide were then added into corresponding wells and mixed thoroughly using a pipette. The plate was incubated in the dark for about 45 minutes at 2-8° C. At the end of the incubation, the cells were washed twice by adding 300 μL of FACS buffer to each well, centrifuging the plate at 1,200 rpm for 5 minutes, and discarding the supernatant. The cell pellets were re-suspended in 100 μL mixture of PE-conjugated goat anti-Human Fcγ 1:500 diluted, CD5-APC and CD4-PerCP5.5 in FACS buffer containing 0.01% sodium azide, and incubated in the dark for about 45 minutes at 2-8° C. At the end of the incubation, the cells were washed, re-suspended with FACS buffer, and analyzed with a BD Caliber flow cytometer. Cells were gated to CD5⁺ CD4⁺ (FIG. 9A) or CD5⁺ CD4⁻ (FIG. 9B).

Binder	EC50 (nM) of killing, CD4+ effector cells, JIMT1-luc target cells, E:T 5:1 [1] [nM]	EC50 (nM) of killing, CD8+ effector cells, JIMT1-luc target cells, E:T 5:1 [1] [nM]	EC50 (nM) of killing, PanT effector cells, JIMT1-luc target cells, E:T 5:1 [1] [nM]	EC50 (read off the curve) [2] [pM]	EC50 (nM) of killing, CD4+ effector cells, JIMT1-luc target cells, E:T 5:1 [3] [nM]	EC50 (nM) of killing, CD8+ effector cells, JIMT1-luc target cells, E:T 5:1 [3] [nM]	EC50 (nM) of killing, PanT effector cells, JIMT1-luc target cells, E:T 5:1 [3] [nM]	EC50 (read off the curve) [4] [pM]
B1	0.0045	0.0007	0.0009	~1000				
B2				~800				
B3	0.16	0.0021	0.0028	~500				
B4					0.314	0.0051	0.0058	~1000
